Test system: Escherichia coli TOP10
Experiment: shrunken log2 fold change of peptide-encoding DNA abundance (4.5 h post-induction vs induction); higher = less antimicrobial activity (less host growth inhibition)
Conditions: time post-induction: 4.5 h; library: site-saturation at positions 5, 18, 19, 20
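Further: peptides expressed intracellularly from a pBAD plasmid library in pooled LB shake-flask culture, induced with 0.3% L-arabinose, DNA abundance read by NGS, three biological replicates, DESeq2 with apeglm shrinkage.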

Sequence	shrunken log2 fold change
RRIRCRPPRLPRPRPRPVCNPRP	0.0532
RRIRARPPRLPRPRPRPGVEPRP	0.118
RRIRVRPPRLPRPRPRPRLEPRP	0.138
RRIRPRPPRLPRPRPRPHPSPRP	0.000134
RRIRLRPPRLPRPRPRPIMNPRP	-0.381
RRIRPRPPRLPRPRPRPCSSPRP	-0.467
RRIRKRPPRLPRPRPRPTCWPRP	0.499
RRIRTRPPRLPRPRPRPVYYPRP	-1.24
RRIRARPPRLPRPRPRPPLCPRP	0.762
RRIRYRPPRLPRPRPRPDKLPRP	-0.0621
RRIRNRPPRLPRPRPRPEYNPRP	-0.678
RRIRLRPPRLPRPRPRPRLMPRP	-0.197
RRIRSRPPRLPRPRPRPYMRPRP	-0.0496
RRIRLRPPRLPRPRPRPRYAPRP	0.00198
RRIRIRPPRLPRPRPRPNKEPRP	-0.131
RRIRWRPPRLPRPRPRPSHNPRP	-0.596
RRIRCRPPRLPRPRPRPMRKPRP	0.249
RRIRHRPPRLPRPRPRPTQCPRP	-0.0253
RRIRDRPPRLPRPRPRPYCDPRP	-0.181
RRIRARPPRLPRPRPRPPPEPRP	1.24
RRIRRRPPRLPRPRPRPCTWPRP	-0.0877
RRIRFRPPRLPRPRPRPTPHPRP	0.333
RRIRRRPPRLPRPRPRPVEMPRP	0.483
RRIRIRPPRLPRPRPRPRLVPRP	0.22
RRIRLRPPRLPRPRPRPAYKPRP	-0.00989

Sequence	shrunken log2 fold change
RRIRCRPPRLPRPRPRPVMSPRP	-0.136
RRIRYRPPRLPRPRPRPSRSPRP	0.134
RRIRERPPRLPRPRPRPEQWPRP	0.127
RRIRIRPPRLPRPRPRPGATPRP	-0.0576
RRIRTRPPRLPRPRPRPPSEPRP	0.42
RRIRSRPPRLPRPRPRPSHGPRP	-0.19
RRIRNRPPRLPRPRPRPRKTPRP	-0.0384
RRIRTRPPRLPRPRPRPVPNPRP	0.123
RRIRRRPPRLPRPRPRPDMCPRP	0.019
RRIRVRPPRLPRPRPRPVRDPRP	0.0998
RRIRNRPPRLPRPRPRPGIIPRP	-0.00401
RRIRARPPRLPRPRPRPPHIPRP	0.455
RRIRERPPRLPRPRPRPFLPPRP	-0.701
RRIRIRPPRLPRPRPRPLSTPRP	-0.599
RRIRERPPRLPRPRPRPMVPPRP	-0.103
RRIRYRPPRLPRPRPRPELAPRP	-0.0264
RRIRIRPPRLPRPRPRPCALPRP	0.00316
RRIRLRPPRLPRPRPRPIIAPRP	-0.0536
RRIRCRPPRLPRPRPRPGSHPRP	-0.0784
RRIRYRPPRLPRPRPRPQPKPRP	-0.0232
RRIRDRPPRLPRPRPRPHAMPRP	0.158
RRIRSRPPRLPRPRPRPHSKPRP	-0.486
RRIRTRPPRLPRPRPRPCVPPRP	-0.109
RRIRIRPPRLPRPRPRPTKVPRP	-0.257
RRIRGRPPRLPRPRPRPDMVPRP	-0.0595

Sequence	shrunken log2 fold change
RRIRSRPPRLPRPRPRPYCCPRP	-0.375
RRIRLRPPRLPRPRPRPAMEPRP	-0.0355
RRIRCRPPRLPRPRPRPFSKPRP	-0.203
RRIRARPPRLPRPRPRPSGHPRP	0.168
RRIRRRPPRLPRPRPRPMMIPRP	-0.185
RRIRERPPRLPRPRPRPREWPRP	0.325
RRIRRRPPRLPRPRPRPCRGPRP	0.17
RRIRDRPPRLPRPRPRPIHEPRP	-0.0852
RRIRGRPPRLPRPRPRPHWVPRP	0.107
RRIRNRPPRLPRPRPRPCCDPRP	-0.0282
RRIRVRPPRLPRPRPRPHYFPRP	-0.00578
RRIRRRPPRLPRPRPRPVFGPRP	0.329
RRIRHRPPRLPRPRPRPGSQPRP	0.0187
RRIRARPPRLPRPRPRPLSLPRP	-0.0486
RRIRWRPPRLPRPRPRPFVMPRP	-1.01
RRIRNRPPRLPRPRPRPDPVPRP	-0.137
RRIRPRPPRLPRPRPRPWYPPRP	-0.119
RRIRSRPPRLPRPRPRPFPAPRP	0.0186
RRIRMRPPRLPRPRPRPDIDPRP	0.467
RRIRRRPPRLPRPRPRPVEIPRP	0.048
RRIRKRPPRLPRPRPRPCKEPRP	-0.0743
RRIRHRPPRLPRPRPRPHEQPRP	-0.0118
RRIRQRPPRLPRPRPRPCNPPRP	-0.0715
RRIRQRPPRLPRPRPRPHMDPRP	-1.07
RRIRMRPPRLPRPRPRPGCFPRP	0.773

Sequence	shrunken log2 fold change
RRIRDRPPRLPRPRPRPGSFPRP	0.0331
RRIRYRPPRLPRPRPRPGIFPRP	-0.708
RRIRIRPPRLPRPRPRPIGQPRP	-0.0062
RRIRIRPPRLPRPRPRPIKHPRP	-0.571
RRIRCRPPRLPRPRPRPVVAPRP	0.319
RRIRHRPPRLPRPRPRPNFSPRP	-0.415
RRIRTRPPRLPRPRPRPFNQPRP	-0.163
RRIRLRPPRLPRPRPRPEPEPRP	0.551
RRIRARPPRLPRPRPRPRHFPRP	0.157
RRIRGRPPRLPRPRPRPMLCPRP	0.558
RRIRERPPRLPRPRPRPFELPRP	-0.0731
RRIRARPPRLPRPRPRPFDKPRP	-0.107
RRIRSRPPRLPRPRPRPESFPRP	-0.0898
RRIRVRPPRLPRPRPRPSLQPRP	-0.0631
RRIRARPPRLPRPRPRPGPYPRP	1.85
RRIRPRPPRLPRPRPRPCNRPRP	-0.148
RRIRARPPRLPRPRPRPVAMPRP	0.383
RRIRVRPPRLPRPRPRPNKWPRP	-0.138
RRIRLRPPRLPRPRPRPPCTPRP	0.036
RRIRCRPPRLPRPRPRPVVGPRP	-0.0604
RRIRHRPPRLPRPRPRPSSKPRP	-0.0453
RRIRSRPPRLPRPRPRPPGDPRP	0.344
RRIRHRPPRLPRPRPRPAQTPRP	-0.1
RRIRWRPPRLPRPRPRPSHYPRP	-0.557
RRIRHRPPRLPRPRPRPVFPPRP	0.171

Sequence	shrunken log2 fold change
RRIRNRPPRLPRPRPRPIHVPRP	-0.224
RRIRIRPPRLPRPRPRPQQAPRP	0.0151
RRIRERPPRLPRPRPRPKRGPRP	0.385
RRIRHRPPRLPRPRPRPHICPRP	-0.259
RRIRTRPPRLPRPRPRPKLWPRP	0.401
RRIRYRPPRLPRPRPRPTNEPRP	-0.586
RRIRCRPPRLPRPRPRPMTSPRP	-0.0603
RRIRLRPPRLPRPRPRPDNYPRP	0.0733
RRIRDRPPRLPRPRPRPPTTPRP	0.151
RRIRKRPPRLPRPRPRPMHTPRP	0.192
RRIRNRPPRLPRPRPRPLIRPRP	-0.0892
RRIRIRPPRLPRPRPRPWEDPRP	-0.202
RRIRARPPRLPRPRPRPNDIPRP	-0.448
RRIRMRPPRLPRPRPRPVAVPRP	0.55
RRIRLRPPRLPRPRPRPDPMPRP	-0.00264
RRIRGRPPRLPRPRPRPIDQPRP	0.436
RRIRMRPPRLPRPRPRPFLSPRP	-0.0215
RRIRGRPPRLPRPRPRPTLCPRP	0.443
RRIRTRPPRLPRPRPRPYRIPRP	-0.0176
RRIRPRPPRLPRPRPRPCYPPRP	-0.301
RRIRERPPRLPRPRPRPRQVPRP	-0.0483
RRIRQRPPRLPRPRPRPMFIPRP	-0.129
RRIRQRPPRLPRPRPRPSHAPRP	-0.107
RRIRNRPPRLPRPRPRPYISPRP	0.00753
RRIRQRPPRLPRPRPRPTGIPRP	-0.177

Sequence	shrunken log2 fold change
RRIRVRPPRLPRPRPRPNNTPRP	-0.418
RRIRIRPPRLPRPRPRPLNGPRP	-0.0474
RRIRERPPRLPRPRPRPPLHPRP	-0.0595
RRIRMRPPRLPRPRPRPQSAPRP	0.055
RRIRYRPPRLPRPRPRPRQLPRP	-0.0472
RRIRSRPPRLPRPRPRPYEGPRP	-0.213
RRIRARPPRLPRPRPRPGPHPRP	0.568
RRIRWRPPRLPRPRPRPVYLPRP	-0.229
RRIRQRPPRLPRPRPRPGEEPRP	0.0331
RRIRCRPPRLPRPRPRPTQDPRP	0.805
RRIRFRPPRLPRPRPRPNVKPRP	-0.574
RRIRLRPPRLPRPRPRPKEVPRP	-0.147
RRIRVRPPRLPRPRPRPQEKPRP	0.0369
RRIRDRPPRLPRPRPRPACRPRP	0.219
RRIRVRPPRLPRPRPRPKILPRP	-0.0923
RRIRIRPPRLPRPRPRPSLAPRP	0.0113
RRIRARPPRLPRPRPRPLFMPRP	-0.166
RRIRQRPPRLPRPRPRPADAPRP	0.242
RRIRYRPPRLPRPRPRPCVEPRP	-0.0115
RRIRMRPPRLPRPRPRPWIAPRP	-0.00608
RRIRQRPPRLPRPRPRPCPSPRP	0.0332
RRIRERPPRLPRPRPRPHIWPRP	0.00885
RRIRMRPPRLPRPRPRPYPAPRP	-0.246
RRIRLRPPRLPRPRPRPANVPRP	-0.304
RRIRVRPPRLPRPRPRPDPFPRP	0.0836

Reference: the supplement of paper PMC9112550, “Optimization of the antimicrobial peptide Bac7 by deep mutational scanning” (BMC Biology, 2022)
